Assay results: patent publication US20240043563A1

How the values were obtained:
[1] = biological target: Fc-hMASP-2A-CCS (human) [IgG part: P01857]; assay: ELISA according to Example 5, plate coated with Fc-hMASP-2A-CCS
[2] = biological target: cynomolgus monkey MASP-2 of cynomolgus monkey serum (cynomolgus monkey); assay: cell-based or functional assay

Chain of Fc-hMASP-2A-CCS (human) [IgG part: P01857] (P01857 other isoform, or with tags, fused parts or gaps limits assumed, form in doubt): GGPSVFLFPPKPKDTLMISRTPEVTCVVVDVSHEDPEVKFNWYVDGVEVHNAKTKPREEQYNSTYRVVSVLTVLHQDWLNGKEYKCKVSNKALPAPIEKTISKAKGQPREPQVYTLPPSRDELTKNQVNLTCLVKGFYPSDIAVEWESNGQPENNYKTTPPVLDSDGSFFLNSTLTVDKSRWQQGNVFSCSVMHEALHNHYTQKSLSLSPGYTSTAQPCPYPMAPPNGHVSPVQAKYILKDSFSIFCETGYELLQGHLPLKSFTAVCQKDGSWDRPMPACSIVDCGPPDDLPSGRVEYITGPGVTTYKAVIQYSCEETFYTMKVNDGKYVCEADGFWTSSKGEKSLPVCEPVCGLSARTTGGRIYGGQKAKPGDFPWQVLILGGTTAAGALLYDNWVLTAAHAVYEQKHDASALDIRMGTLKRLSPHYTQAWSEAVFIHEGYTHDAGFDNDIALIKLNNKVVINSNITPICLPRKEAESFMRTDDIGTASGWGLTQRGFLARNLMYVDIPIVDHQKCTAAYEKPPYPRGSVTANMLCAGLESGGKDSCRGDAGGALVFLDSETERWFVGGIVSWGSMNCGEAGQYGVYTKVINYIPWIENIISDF

EC50 [1]: 0.227 nM
IC50 of inhibition of MASP-2-catalyzed C4 cleavage in 90% cynomolgus monkey serum [2]: 94 nM
Substance: Narsoplimab (antibody)
